Experimental data: the supplement of paper PMC9876800

Tested on: peptide library, one residue held at a place counted from the S/T acceptor
Experiment: relative phosphorylation of the sub-library (ratio to the mean residue at this position); human; higher = residue favoured
Summary of the method: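 Relative sub-library phosphorylation, a ratio to the mean residue at that position, was obtained by phosphorimaging and densitometry of spots on streptavidin membranes. Before capture, purified recombinant kinases were incubated for 90 min under kinase-specific conditions with 50 μM biotinylated degenerate peptide sub-libraries and 50 μM ATP spiked with γ-32P-ATP. Each sub-library fixed one residue at one position around a central Ser/Thr.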

AURKA, construct: Full length, sequence (O14965 whole entry, looked up): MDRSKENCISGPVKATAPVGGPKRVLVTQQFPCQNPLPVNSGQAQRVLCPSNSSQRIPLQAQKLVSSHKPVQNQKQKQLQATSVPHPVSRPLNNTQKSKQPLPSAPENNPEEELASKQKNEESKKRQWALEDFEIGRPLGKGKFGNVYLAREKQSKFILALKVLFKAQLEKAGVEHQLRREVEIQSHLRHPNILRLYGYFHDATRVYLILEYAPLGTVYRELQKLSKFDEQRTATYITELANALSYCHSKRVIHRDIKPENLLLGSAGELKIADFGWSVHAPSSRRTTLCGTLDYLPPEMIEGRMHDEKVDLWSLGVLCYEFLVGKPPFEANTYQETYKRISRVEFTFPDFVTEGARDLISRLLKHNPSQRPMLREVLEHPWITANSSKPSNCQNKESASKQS
PAK1, construct: aa150-end, sequence (Q13153 150-545, looked up): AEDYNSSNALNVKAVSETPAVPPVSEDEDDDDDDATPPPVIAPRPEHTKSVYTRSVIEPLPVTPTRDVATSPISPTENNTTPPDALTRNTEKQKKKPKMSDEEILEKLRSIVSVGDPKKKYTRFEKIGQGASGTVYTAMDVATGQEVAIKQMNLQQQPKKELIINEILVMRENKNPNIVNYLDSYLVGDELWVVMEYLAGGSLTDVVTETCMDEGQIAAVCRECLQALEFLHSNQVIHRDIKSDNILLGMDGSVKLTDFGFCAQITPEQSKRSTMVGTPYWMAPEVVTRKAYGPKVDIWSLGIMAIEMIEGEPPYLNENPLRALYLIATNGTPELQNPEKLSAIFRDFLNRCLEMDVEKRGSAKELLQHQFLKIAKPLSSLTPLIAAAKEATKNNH

AURKA, construct: Full length (from UniProt O14965)
relative phosphorylation
Settings	at +1	at +2	at +3	at +4	at -1	at -2	at -3	at -4	at -5
A fixed	0.474	1	0.906	0.863	0.683	0.209	0.665	1.08	1.08
D fixed	1.14	0.993	0.822	0.906	1.39	0.274	0.606	1.4	1
E fixed	0.796	1.03	0.851	1.1	1.56	0.257	0.85	0.963	1.06
F fixed	1.83	0.958	1.25	0.755	0.884	0.203	0.574	0.725	0.83
G fixed	0.647	1.76	1.48	1.05	0.689	0.32	1.38	1.23	1.18
H fixed	0.665	1.3	1.32	1.18	1.09	0.341	0.964	0.952	1.08
I fixed	1.66	1.03	0.865	0.931	0.637	0.162	0.46	0.706	0.874
K fixed	0.241	0.324	0.844	1.19	0.707	1.32	1.58	1.35	1.38
L fixed	2.05	0.784	0.812	0.649	1.32	0.182	0.367	0.766	0.753
M fixed	1.76	0.832	0.752	1	1.38	0.176	0.541	0.818	0.722
N fixed	0.852	0.649	0.798	1.26	1.15	0.345	0.857	1.04	1.2
P fixed	0.211	0.78	1.3	0.969	0.748	0.289	0.883	0.905	0.738
Q fixed	0.735	0.629	0.843	1.06	1.09	0.608	0.667	0.908	0.802
R fixed	0.425	0.509	0.821	1.24	1.16	11.7	4.83	1.71	1.67
V fixed	1.11	0.766	0.775	0.682	0.601	0.163	0.425	0.699	0.759
W fixed	1.26	0.881	1.2	1.22	0.587	0.232	0.779	0.966	0.906
Y fixed	1.14	2.77	1.36	0.948	1.33	0.185	0.574	0.782	0.964
pThr fixed	1.61	1.26	1.07	1.53	0.588	0.374	0.879	0.972	1.04
pTyr fixed	0.836	1.53	1.74	1.43	2.24	0.356	1	0.962	1.3

PAK1, construct: aa150-end (from UniProt Q13153)
relative phosphorylation
Settings	at +1	at +2	at +3	at +4	at -1	at -2	at -3	at -4	at -5
A fixed	0.877	1.16	0.875	1.05	0.946	0.789	0.87	1.27	1.39
D fixed	0.338	0.472	0.959	1.32	0.592	0.203	0.558	0.825	0.785
E fixed	0.428	0.398	1.09	1.29	0.559	0.206	0.495	0.85	0.676
F fixed	0.993	1.14	1.33	0.741	0.696	0.346	0.464	0.633	0.68
G fixed	0.895	0.726	1.22	1.24	0.782	0.526	0.869	1.4	1.44
H fixed	1.09	1.6	1.17	0.97	1.35	1.37	1.4	1.14	1.16
I fixed	1.03	1.1	0.826	0.773	0.564	0.551	0.41	0.529	0.55
K fixed	1.18	0.604	0.775	1.08	1.72	1.32	2.34	1.71	1.88
L fixed	0.969	1.09	1.04	0.77	0.821	0.374	0.415	0.547	0.53
M fixed	1.58	1.02	0.913	0.783	0.927	0.36	0.485	0.744	0.587
N fixed	0.895	0.885	0.971	1.11	1.19	0.518	0.965	1.01	1.03
P fixed	0.228	0.716	1.03	1.4	0.646	1.08	0.823	1.24	1.16
Q fixed	1.3	0.766	0.897	1.2	1.11	0.673	0.952	1.08	0.964
R fixed	1.46	0.793	0.841	0.95	2.22	6.99	4.23	1.99	2.04
V fixed	0.971	0.925	0.797	0.851	0.766	0.724	0.431	0.624	0.707
W fixed	1.57	0.978	1.03	0.806	0.886	0.369	0.703	0.756	0.668
Y fixed	1.19	2.62	1.22	0.652	1.22	0.6	0.594	0.672	0.762
pThr fixed	0.668	0.676	0.877	1.4	0.439	0.503	0.568	0.857	0.666
pTyr fixed	0.886	4.31	1.28	1.09	0.672	0.392	0.853	0.808	0.675
